Tested on: Escherichia coli TOP10
Assay: shrunken log2 fold change of peptide-encoding DNA abundance (4.5 h post-induction vs induction); higher = less antimicrobial activity (less host growth inhibition)
Conditions: time post-induction: 4.5 h; library: site-saturation at positions 5, 18, 19, 20
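Also: peptides expressed intracellularly from a pBAD plasmid library in pooled LB shake-flask culture, induced with 0.3% L-arabinose, DNA abundance read by NGS, three biological replicates, DESeq2 with apeglm shrinkage.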

Sequence | shrunken log2 fold change
RRIRCRPPRLPRPRPRPVPQPRP | 0.0921
RRIRCRPPRLPRPRPRPVQLPRP | 0.0365
RRIRCRPPRLPRPRPRPVRDPRP | 0.238
RRIRCRPPRLPRPRPRPVRHPRP | 0.403
RRIRCRPPRLPRPRPRPVRIPRP | -0.108
RRIRCRPPRLPRPRPRPVRVPRP | 0.272
RRIRCRPPRLPRPRPRPVTDPRP | 0.133
RRIRCRPPRLPRPRPRPVTFPRP | -0.294
RRIRCRPPRLPRPRPRPVVDPRP | -0.15
RRIRCRPPRLPRPRPRPVVQPRP | -0.235
RRIRCRPPRLPRPRPRPVWIPRP | -0.441
RRIRCRPPRLPRPRPRPVYQPRP | -0.783
RRIRCRPPRLPRPRPRPVYRPRP | -0.445
RRIRCRPPRLPRPRPRPWAGPRP | 0.124
RRIRCRPPRLPRPRPRPWATPRP | 0.00822
RRIRCRPPRLPRPRPRPWCHPRP | -0.463
RRIRCRPPRLPRPRPRPWCPPRP | -0.281
RRIRCRPPRLPRPRPRPWCWPRP | 0.0184
RRIRCRPPRLPRPRPRPWDVPRP | 0.0309
RRIRCRPPRLPRPRPRPWELPRP | 0.268
RRIRCRPPRLPRPRPRPWEMPRP | -0.0816
RRIRCRPPRLPRPRPRPWESPRP | 0.0539
RRIRCRPPRLPRPRPRPWGMPRP | -0.16
RRIRCRPPRLPRPRPRPWHWPRP | 0.0135
RRIRCRPPRLPRPRPRPWIFPRP | -0.159

Sequence | shrunken log2 fold change
RRIRCRPPRLPRPRPRPWIHPRP | -0.277
RRIRCRPPRLPRPRPRPWIKPRP | -1.1
RRIRCRPPRLPRPRPRPWLCPRP | -0.182
RRIRCRPPRLPRPRPRPWLNPRP | -0.752
RRIRCRPPRLPRPRPRPWLQPRP | -0.199
RRIRCRPPRLPRPRPRPWMHPRP | -0.621
RRIRCRPPRLPRPRPRPWNGPRP | -0.0552
RRIRCRPPRLPRPRPRPWNLPRP | -0.19
RRIRCRPPRLPRPRPRPWNWPRP | -0.0303
RRIRCRPPRLPRPRPRPWPKPRP | 0.0772
RRIRCRPPRLPRPRPRPWRCPRP | 0.486
RRIRCRPPRLPRPRPRPWRHPRP | -0.126
RRIRCRPPRLPRPRPRPWRVPRP | 0.149
RRIRCRPPRLPRPRPRPWSKPRP | -0.498
RRIRCRPPRLPRPRPRPWTVPRP | -0.145
RRIRCRPPRLPRPRPRPWVMPRP | -0.221
RRIRCRPPRLPRPRPRPWWWPRP | -0.1
RRIRCRPPRLPRPRPRPWYAPRP | -0.529
RRIRCRPPRLPRPRPRPWYFPRP | -0.264
RRIRCRPPRLPRPRPRPYATPRP | -0.294
RRIRCRPPRLPRPRPRPYCFPRP | -0.783
RRIRCRPPRLPRPRPRPYCPPRP | -0.968
RRIRCRPPRLPRPRPRPYCTPRP | -0.503
RRIRCRPPRLPRPRPRPYDPPRP | -0.914
RRIRCRPPRLPRPRPRPYFNPRP | -1.04

Sequence | shrunken log2 fold change
RRIRCRPPRLPRPRPRPYGLPRP | -0.0136
RRIRCRPPRLPRPRPRPYIDPRP | -1.39
RRIRCRPPRLPRPRPRPYIQPRP | -0.3
RRIRCRPPRLPRPRPRPYKPPRP | -0.705
RRIRCRPPRLPRPRPRPYKWPRP | -0.636
RRIRCRPPRLPRPRPRPYLGPRP | -0.213
RRIRCRPPRLPRPRPRPYLHPRP | -1.18
RRIRCRPPRLPRPRPRPYLYPRP | -1.01
RRIRCRPPRLPRPRPRPYNVPRP | -0.434
RRIRCRPPRLPRPRPRPYQIPRP | -0.852
RRIRCRPPRLPRPRPRPYQLPRP | -0.119
RRIRCRPPRLPRPRPRPYQMPRP | -1.3
RRIRCRPPRLPRPRPRPYQSPRP | -0.307
RRIRCRPPRLPRPRPRPYRRPRP | -0.344
RRIRCRPPRLPRPRPRPYSDPRP | -0.0426
RRIRCRPPRLPRPRPRPYSHPRP | -0.595
RRIRCRPPRLPRPRPRPYSTPRP | -0.818
RRIRCRPPRLPRPRPRPYTGPRP | -0.554
RRIRCRPPRLPRPRPRPYVAPRP | -0.858
RRIRCRPPRLPRPRPRPYVIPRP | -0.381
RRIRCRPPRLPRPRPRPYVWPRP | -0.369
RRIRCRPPRLPRPRPRPYWDPRP | -1.1
RRIRCRPPRLPRPRPRPYWLPRP | -0.669
RRIRDRPPRLPRPRPRPAAVPRP | 0.609
RRIRDRPPRLPRPRPRPAAWPRP | 1.56

Sequence | shrunken log2 fold change
RRIRDRPPRLPRPRPRPADFPRP | -0.0606
RRIRDRPPRLPRPRPRPADIPRP | -0.00114
RRIRDRPPRLPRPRPRPAFAPRP | 0.928
RRIRDRPPRLPRPRPRPAFMPRP | 0.699
RRIRDRPPRLPRPRPRPAGCPRP | 0.738
RRIRDRPPRLPRPRPRPAGLPRP | 0.0252
RRIRDRPPRLPRPRPRPAKAPRP | 0.0972
RRIRDRPPRLPRPRPRPAKDPRP | -0.0015
RRIRDRPPRLPRPRPRPAKRPRP | -0.161
RRIRDRPPRLPRPRPRPAMEPRP | -0.0517
RRIRDRPPRLPRPRPRPANFPRP | 0.0245
RRIRDRPPRLPRPRPRPAPNPRP | 0.138
RRIRDRPPRLPRPRPRPAPWPRP | 0.226
RRIRDRPPRLPRPRPRPAQLPRP | -0.0667
RRIRDRPPRLPRPRPRPAQMPRP | 1.2
RRIRDRPPRLPRPRPRPARAPRP | 0.928
RRIRDRPPRLPRPRPRPARHPRP | 0.368
RRIRDRPPRLPRPRPRPARRPRP | 0.59
RRIRDRPPRLPRPRPRPARSPRP | 0.0403
RRIRDRPPRLPRPRPRPASTPRP | 0.397
RRIRDRPPRLPRPRPRPATHPRP | 0.335
RRIRDRPPRLPRPRPRPATLPRP | -0.146
RRIRDRPPRLPRPRPRPAYHPRP | -0.263
RRIRDRPPRLPRPRPRPCCAPRP | 0.58
RRIRDRPPRLPRPRPRPCDMPRP | -0.0013

Sequence | shrunken log2 fold change
RRIRDRPPRLPRPRPRPCDRPRP | -0.0944
RRIRDRPPRLPRPRPRPCEHPRP | -0.133
RRIRDRPPRLPRPRPRPCFEPRP | 0.708
RRIRDRPPRLPRPRPRPCFKPRP | -0.0968
RRIRDRPPRLPRPRPRPCFLPRP | -0.106
RRIRDRPPRLPRPRPRPCFNPRP | -0.134
RRIRDRPPRLPRPRPRPCFWPRP | 0.612
RRIRDRPPRLPRPRPRPCGAPRP | 0.838
RRIRDRPPRLPRPRPRPCGSPRP | 0.0136
RRIRDRPPRLPRPRPRPCHLPRP | -0.00196
RRIRDRPPRLPRPRPRPCHNPRP | -0.184
RRIRDRPPRLPRPRPRPCHPPRP | -0.0697
RRIRDRPPRLPRPRPRPCIKPRP | 0.0183
RRIRDRPPRLPRPRPRPCKDPRP | -0.144
RRIRDRPPRLPRPRPRPCMGPRP | -0.0733
RRIRDRPPRLPRPRPRPCMQPRP | -0.0524
RRIRDRPPRLPRPRPRPCNIPRP | -0.228
RRIRDRPPRLPRPRPRPCNKPRP | -0.764
RRIRDRPPRLPRPRPRPCPCPRP | -0.478
RRIRDRPPRLPRPRPRPCQCPRP | -0.017
RRIRDRPPRLPRPRPRPCQGPRP | 0.028
RRIRDRPPRLPRPRPRPCTMPRP | -0.0909
RRIRDRPPRLPRPRPRPCYHPRP | -0.019
RRIRDRPPRLPRPRPRPCYLPRP | -0.345
RRIRDRPPRLPRPRPRPCYTPRP | -0.295

Sequence | shrunken log2 fold change
RRIRDRPPRLPRPRPRPDASPRP | -0.012
RRIRDRPPRLPRPRPRPDAWPRP | 0.816
RRIRDRPPRLPRPRPRPDCCPRP | -0.0205
RRIRDRPPRLPRPRPRPDCWPRP | 1.65
RRIRDRPPRLPRPRPRPDFMPRP | 0.161
RRIRDRPPRLPRPRPRPDFWPRP | 0.596
RRIRDRPPRLPRPRPRPDGIPRP | -0.0113
RRIRDRPPRLPRPRPRPDHCPRP | -0.00174
RRIRDRPPRLPRPRPRPDKAPRP | -0.00804
RRIRDRPPRLPRPRPRPDLLPRP | 0.106
RRIRDRPPRLPRPRPRPDLTPRP | 0.00118
RRIRDRPPRLPRPRPRPDMCPRP | -0.0138
RRIRDRPPRLPRPRPRPDPCPRP | -0.0187
RRIRDRPPRLPRPRPRPDRHPRP | -0.278
RRIRDRPPRLPRPRPRPDRPPRP | -0.251
RRIRDRPPRLPRPRPRPDRSPRP | 0.0975
RRIRDRPPRLPRPRPRPDSHPRP | 0.0162
RRIRDRPPRLPRPRPRPDSTPRP | -0.00421
RRIRDRPPRLPRPRPRPDTMPRP | 0.373
RRIRDRPPRLPRPRPRPEEYPRP | 0.0208
RRIRDRPPRLPRPRPRPEFRPRP | 0.283
RRIRDRPPRLPRPRPRPEIVPRP | 0.048
RRIRDRPPRLPRPRPRPELCPRP | -0.0337
RRIRDRPPRLPRPRPRPEMQPRP | -0.0247
RRIRDRPPRLPRPRPRPEMSPRP | 0.00748
